# Test results reported in publication PMC2957832 (Biochemical and biophysical research communications, 2010).
# Target: the molecule itself
# Assay: SEC
protein,measurement,value
"Purβ core tryptic fragment (residues 29–305) (domain or fragment, mouse, UniProt O35295 29-305, looked up) GGGGGGGGPGGEQETQELASKRLDIQNKRFYLDVKQNAKGRFLKIAEVGAGGSKSRLTLSMAVAAEFRDSLGDFIEHYAQLGPSSPEQLAAGAEEGGGPRRALKSEFLVRENRKYYLDLKENQRGRFLRIRQTVNRGGGGFGGGPGPGGLQSGQTIALPAQGLIEFRDALAKLIDDYGGDEDELAGGPGGGAGGPGGGLYGELPEGTSITVDSKRFFFDVGCNKYGVFLRVSEVKPSYRNAITVPFKAWGKFGGAFCRYADEMKEIQERQRDKLYER",stoichiometry N,2
